Measured values from US20240100176A1 (Eli Lilly, published 2024).

Experiments:
Experiment in all cases: capture ELISA: Ab1 on anti-human IgG Fc, His-tagged receptor at 0.2 µg/mL, anti-His HRP
[1] = molecular target: T1, hexahistidine tagged human IL-4Rα ECD L42G (human, UniProt P24394 26-232)
T1 construct: not shown: hexahistidine tag
From the text: (§1) Example 2d. […] Briefly, thirty surface amino acid residue substitutions were introduced individually into hexahistidine tagged human IL-4Rα extra cellular domain (ECD) as follows: K2D, E6R, K22D, P26R, T31R, F41A, L42G, L43G, E45R, E52R, G56R, D66R, A71R, Q82G, K87D, E94R, H107A, D108R, P124R, D125R, D143R, R148D, L155R, R160D, S164R, S168R, Q181R, P192R, K195D, or H197G. Each mutant protein having a single amino acid residue substitution as described above was transiently expressed in CHO cells and purified using standard immobilized metal affinity chromatography techniques. […] The plates were then washed 3 times with PBST and the exemplified human IL-4Rα antibody was added to the wells at a final concentration of 1 μg/mL in PBS-casein and incubated for 1 hour at room temperature. The plates were washed 3 times with PBST, the IL-4Rα mutant proteins were serially diluted 5-fold from 1 μg/mL for 3 points. in PBS-casein and added to the plate at 50 μL/well and incubated for 1 hour at room temperature. The plates were washed 3 times with PBST and a 1000-fold dilution of anti-histidine tag antibody HRP conjugate (R&D Systems, Cat. #MAB050H) in PBS-casein was added and incubated for 45 minutes at room temperature. The plates were washed 3 times, TMB substrate (Pierce, Cat. #34028) was added per manufacturer instructions, the reaction was quenched with H₂SO₄, and absorbance was read at 450 nm on an ELISA plate reader.

[2] = molecular target: T2, hexahistidine tagged human IL-4Rα ECD F41A (human, UniProt P24394 26-232)
T2 construct: not shown: hexahistidine tag
From the text: as §1

[3] = molecular target: T3, hexahistidine tagged human IL-4Rα ECD P26R (human, UniProt P24394 26-232)
T3 construct: not shown: hexahistidine tag
From the text: as §1

[4] = molecular target: T4, hexahistidine tagged human IL-4Rα ECD D143R (human, UniProt P24394 26-232)
T4 construct: not shown: hexahistidine tag
From the text: as §1

[5] = molecular target: T5, hexahistidine tagged human IL-4Rα ECD T31R (human, UniProt P24394 26-232)
T5 construct: not shown: hexahistidine tag
From the text: as §1

[6] = molecular target: T6, hexahistidine tagged human IL-4Rα ECD K195D (human, UniProt P24394 26-232)
T6 construct: not shown: hexahistidine tag
From the text: as §1

[7] = molecular target: T7, hexahistidine tagged human IL-4Rα ECD L155R (human, UniProt P24394 26-232)
T7 construct: not shown: hexahistidine tag
From the text: as §1

[8] = molecular target: T8, hexahistidine tagged human IL-4Rα ECD E94R (human, UniProt P24394 26-232)
T8 construct: not shown: hexahistidine tag
From the text: as §1

[9] = molecular target: T9, hexahistidine tagged human IL-4Rα ECD K87D (human, UniProt P24394 26-232)
T9 construct: not shown: hexahistidine tag
From the text: as §1

[10] = molecular target: T10, hexahistidine tagged human IL-4Rα ECD K22D (human, UniProt P24394 26-232)
T10 construct: not shown: hexahistidine tag
From the text: as §1

[11] = molecular target: T11, hexahistidine tagged human IL-4Rα ECD E52R (human, UniProt P24394 26-232)
T11 construct: not shown: hexahistidine tag
From the text: as §1

[12] = molecular target: T12, hexahistidine tagged human IL-4Rα ECD R148D (human, UniProt P24394 26-232)
T12 construct: not shown: hexahistidine tag
From the text: as §1

[13] = molecular target: T13, hexahistidine tagged human IL-4Rα ECD E6R (human, UniProt P24394 26-232)
T13 construct: not shown: hexahistidine tag
From the text: as §1

[14] = molecular target: T14, hexahistidine tagged human IL-4Rα ECD A71R (human, UniProt P24394 26-232)
T14 construct: not shown: hexahistidine tag
From the text: as §1

[15] = molecular target: T15, hexahistidine tagged human IL-4Rα ECD E45R (human, UniProt P24394 26-232)
T15 construct: not shown: hexahistidine tag
From the text: as §1

[16] = molecular target: T16, hexahistidine tagged human IL-4Rα ECD K2D (human, UniProt P24394 26-232)
T16 construct: not shown: hexahistidine tag
From the text: as §1

[17] = molecular target: T17, hexahistidine tagged human IL-4Rα ECD L43G (human, UniProt P24394 26-232)
T17 construct: not shown: hexahistidine tag
From the text: as §1

[18] = molecular target: T18, hexahistidine tagged human IL-4Rα ECD R160D (human, UniProt P24394 26-232)
T18 construct: not shown: hexahistidine tag
From the text: as §1

T11 sequence (P24394 26-232 E77R): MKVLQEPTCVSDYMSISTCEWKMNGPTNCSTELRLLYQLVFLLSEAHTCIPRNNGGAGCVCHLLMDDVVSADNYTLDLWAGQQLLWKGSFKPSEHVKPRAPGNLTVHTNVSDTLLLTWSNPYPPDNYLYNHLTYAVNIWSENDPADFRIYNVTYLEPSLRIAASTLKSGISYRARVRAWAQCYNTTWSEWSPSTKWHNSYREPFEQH
T15 sequence (P24394 26-232 E70R): as the sequence (P24394 26-232 E77R) above, with E45R, R52E counted along it
T4 sequence (P24394 26-232 D168R): as the sequence (P24394 26-232 E77R) above, with R52E, D143R counted along it
T7 sequence (P24394 26-232 L180R): as the sequence (P24394 26-232 E77R) above, with R52E, L155R counted along it
T17 sequence (P24394 26-232 L68G): as the sequence (P24394 26-232 E77R) above, with L43G, R52E counted along it
T14 sequence (P24394 26-232 A96R): as the sequence (P24394 26-232 E77R) above, with R52E, A71R counted along it
T10 sequence (P24394 26-232 K47D): as the sequence (P24394 26-232 E77R) above, with K22D, R52E counted along it
T16 sequence (P24394 other isoform, or with tags, fused parts or gaps): as the sequence (P24394 26-232 E77R) above, with K2D, R52E counted along it
T6 sequence (P24394 26-232 K220D): as the sequence (P24394 26-232 E77R) above, with R52E, K195D counted along it
T18 sequence (P24394 26-232 R185D): as the sequence (P24394 26-232 E77R) above, with R52E, R160D counted along it
T13 sequence (P24394 other isoform, or with tags, fused parts or gaps): as the sequence (P24394 26-232 E77R) above, with E6R, R52E counted along it
T9 sequence (P24394 26-232 K112D): as the sequence (P24394 26-232 E77R) above, with R52E, K87D counted along it
T8 sequence (P24394 26-232 E119R): as the sequence (P24394 26-232 E77R) above, with R52E, E94R counted along it
T3 sequence (P24394 26-232 P51R): as the sequence (P24394 26-232 E77R) above, with P26R, R52E counted along it
T12 sequence (P24394 26-232 R173D): as the sequence (P24394 26-232 E77R) above, with R52E, R148D counted along it
T5 sequence (P24394 26-232 T56R): as the sequence (P24394 26-232 E77R) above, with T31R, R52E counted along it
T2 sequence (P24394 26-232 F66A): as the sequence (P24394 26-232 E77R) above, with F41A, R52E counted along it
T1 sequence (P24394 26-232 L67G): as the sequence (P24394 26-232 E77R) above, with L42G, R52E counted along it

ELISA (OD450) [1]: 1.48 OD450 | ELISA (OD450) [2]: 1.54 OD450 | ELISA (OD450) [3]: 1.52 OD450 | ELISA (OD450) [4]: 1.69 OD450 | ELISA (OD450) [5]: 1.49 OD450 | ELISA (OD450) [6]: 1.65 OD450 | ELISA (OD450) [7]: 1.68 OD450 | ELISA (OD450) [8]: 1.64 OD450 | ELISA (OD450) [9]: 1.56 OD450 | ELISA (OD450) [10]: 1.3 OD450 | ELISA (OD450) [11]: 1.71 OD450 | ELISA (OD450) [12]: 1.6 OD450 | ELISA (OD450) [13]: 1.5 OD450 | ELISA (OD450) [14]: 1.57 OD450 | ELISA (OD450) [15]: 1.86 OD450 | ELISA (OD450) [16]: 1.61 OD450 | ELISA (OD450) [17]: 1.7 OD450 | ELISA (OD450) [18]: 1.7 OD450
B1: anti-human IL-4Rα antibody Ab1 (antibody, human IgG4 S228P, kappa)
heavy: QVQLVESGGGLVQPGGSLRLSCVASGFTFSHSSMNWVRQAPGKGLEWVSYISRATGAVYYADSVKGRFTISRDNAKNSLYLQMNSLRDEDTAVYYCAREPVFDYWGQGTLVTVSSASTKGPCVFPLAPCSRSTSESTAALGCLVKDYFPEPVTVSWNSGALTSGVHTFPAVLQSSGLYSLSSVVTVPSSSLGTKTYTCNVDHKPSNTKVDKRVESKYGPPCPPCPAPEFLGGPSVFLFPPKPKDTLMISRTPEVTCVVVDVSQEDPEVKFNWYVDGVEVHNAKTKPREEQFNSTYRVVSVLTVLHQDWLNGKEYKCKVSNKGLPSSIEKTISKAKGQPREPQVYTLPPSREEMTKNQVSLTCLVKGFYPSDICVEWESNGQPENNYKTTPPVLDSDGSFFLYSRLTVDKSRWQQGNVFSCSVMHEALHNHYTQKSLSLSLG
light: DIQMTQSPSAMSASVGDRVTITCRASQDISNYLAWFQQKPGKVPTRLIYAASSLQSGVPSRFSGSGSGTEFTLTISSLQPEDFATYYCLQWSSYPRTFGQGTKVEIKRTVAAPSVFIFPPSDEQLKSGTASVVCLLNNFYPREAKVQWKVDNALQSGNSQESVTEQDSKDSTYSLSSTLTLSKADYEKHKVYACEVTHQGLSSPVTKSFNRGEC
notes: human kappa light chain; also called anti-human IL-4Rα Ab1; unconjugated Ab1
